# Results: the DeepSol protein solubility set
# Assay: soluble on expression in E. coli; label from the status in PepcDB or PDB records
row,Sequence,soluble on expression in E. coli
1,MKDLIIIGAGQAGLTMGYYLKQEGYNFLLLEAGKRVGDSWRNRYDSLQLFTPRSYSSLPGMALIGEKNEFPYKDEIATYLEEYARHFQLPVQLQTEVLKIKKEKEIFELHTPTEILQTKKVIIASGAFQQPFIPSVSANLSSHIFQIHSSQYKSPSQIPKGKVLVVGGGNSGMQIAVELAKTHEVTVSISHPLTFLPLQLFGKSIFNLLEKVGLLYAEINTKRGRWFQKRKDPIFGFEGKKLIRNGAIKLQEKVVSASRNNIMFQNGDTYSAESIIWSTGFVQNYNWIEIEQAVNEKGFPNHIKGISPVKGLYYIGLPWQSQRGSALICGVGKDAEYVLSEIKKIDQLEHHHHHH,soluble
2,MKDNERRILLGRVVGGFGLRGEIKIESWTEPRDAIFRYQPWLLRSPTGTESMLNGARGYETGKRLIATFPGINDRNGVEAICGTEIYVPRSALPPPHPDEYYWVDLEGLQVHTLEGVVLGSVSHLFSNGANDVIVIHGERERLIPFVQPDYVKSVDFEAERIVVDWDPEFLEHHHHHH,soluble
3,MKDPRIEKLAYNLINYSIRLQKGEKVLIENFGLQKELVTALVKEAYAAGGFPFVSLKDHQVDRSLLMGATEEHFEQIAAYEASVMKDMDAYIGLRSGDNINEQADVPSERMKVHGQTVGKKVHRDIRVPKTRWVVLRYPNASMAQLAKMSTEAFEDFYFEVCNLDYGKMDKAMDSLVTLMNKTDKVRLTGPGTDLTFSIKDIPAIKCSGHLNIPDGEVYSAPVRDSVNGTVSYNTPSPYNGYTFENVQLKFENGQIVEATANDSERINKIFDTDEGARYVGEFAIGVNPYILHPMGDILFDEKIDGSFHFTPGQAYDDAWNGNNSNIHWDLVCIQRPEYGGGEIYFDDVLIRKDGRFVVPELEALNPENLK,not soluble
4,MKDREIFAGLSTTVPFVLRLDGRSFHRFSKDRYKKPYDKVFSDAMVKTARALVTDSGLSPSFAYTFSDEISLYVPAPVFDCRVEKLASVSAAFAASAFTLYAGASEPLAFDARVIPIEEGLFPAYLSWRQAEAWRNHMNGYAQKILQDEGVSPTNAQKQLDGMNAAALHEFAFSRGVNLALTPAWERRGICIYRDVVMRDGYNPIKDEKVSVERTIAVIDEDVPLFKSPEGTAWVLSKIRLEHHHHHH,not soluble
5,MKDRELLAKSITTKDAVSDGRESPSLLSDKLSRLPWSTLYASVFCAGVLLLPFSGQAVEPPVAAKASENKNQLKTLQQDIAEKEKSVQQQKKQRSSLLDQLKQQENTISQTSRSLRETQAALAELSKDIASLTTSIEKLQNQQSQQQSILSKQLAAAFKQGKHSSLQLILSGEESQRSERILAYFSYLNEARQKAIEELKQTRTTLSAEKKMLEQKQNQHKALLDEQKAQQQKLEQARIARQKTLTSLEASLEKDQQSLAELKLNESRLRDQIAKAEREAKARAEREAKEAARVREQVKVKEQQAKKTGSSYKPSESERSLMARTGGLGRPGGQALWPVRGNVSHRFGEPLQGELRWKGMVITAPEGSEVKAIADGRVLLADWLQGYGLVVVIEHGKGDMSLYGYNQSALVNVGAQVKAGQPIALVGTSGGQGEPSLYFEIRRQGQAVNPQPWLGR,not soluble
6,MKDTLGFEHADRSLYYRFRNSLSSNLHLTHFDIETKLEVAKKFNLILNDQFVKDLNSTMNLIFEPNGCLASYTWKTDFLDYTLNPMELIIPYQSVIPSKTVPYRKRRMNDLEDLRKIKECSKRAFISNSDQSEVPSTSMLNSMKEMITEAVETSNKKLIEELKTSNEALVAQVANFKSKHIEQSSGKPGMRAYLEGLKGFLHHLNMPELADIKVRLNTLEKDLGDTDQPIPVQSIHSVLDIGLKLIGG,not soluble
7,MKEALEAALREILGPGEVVALRRLPGGASKEAWAVDYRTGEALHPLFLRRAGGGVIYSKTLALAEEFRLLQVAWAHGVKVPEPLHYFPDLEGREAFLMRRLEGETIGARVVRRPELARARETLPQAMAEELAKIHALSPDEVPFLQPPSLPSWRPALKKACRDLNALGKPHPALKWGMRWLLTHPPRELPPVVVHGDFRVGNLLVNGEGLVAVLDWEFAHLGDPREDLAWPLVRAWRFGEDGKRLGGVGEVGPFLERYNALTGRDIAEEELFWWEVLGNVRWGLGALKQARRHLRGEERSVELAVLGRLASEMEYEVLHLLERYG,soluble
8,MKEFIISEARTEPTVLVGLITPQQSETQVREYLDELAFLCETAGAQPIARFTQKLDQPNSVTFVGKGKLDEIRAYVQENEIGMVVFDDELSPKQLRNIEKELQTKILDRTGLILDIFARRAQTAHAKTQVELAQYQYMLPRLTGLWTHLERQRGGVGMRGPGEKQLETDRRIVLDKIARLKEELRDIDKQKSVQRKNRGKMVRVALVGYTNVGKSTLMNVLSKSEVFAENKLFATLDTTVRKVIIDNLPFLLSDTVGFIRKLPTQLVESFKSTLDEVREADLLVHVVDMSHPAFEEQIEVVNQTLAEITAGEEKPMLLLFNKIDAFSFTPKDEDDLTPRTKENISAEELQQTWMAKLGNDCLFVSAKKGTGMDALKALLYERAKAIHITRFPYNDFLFQDYSEEME,not soluble
9,MKEFYLTVEQIGDSIFERYIDSNGRERTREVEYKPSLFAHCPESQATKYFDIYGKPCTRKLFANMRDASQWIKRMEDIGLEALGMDDFKLAYLSDTYNYEIKYDHTKIRVANFDIEVTSPDGFPEPSQAKHPIDAITHYDSIDDRFYVFDLLNSPYGNVEEWSIEIAAKLQEQGGDEVPSEIIDKIIYMPFDNEKELLMEYLNFWQQKTPVILTGWNVESFDIPYVYNRIKNIFGESTAKRLSPHRKTRVKVIENMYGSREIITLFGISVLDYIDLYKKFSFTNQPSYSLDYISEFELNVGKLKYDGPISKLRESNHQRYISYNIIDVYRVLQIDAKRQFINLSLDMGYYAKIQIQSVFSPIKTWDAIIFNSLKEQNKVIPQGRSHPVQPYPGAFVKEPIPNRYKYVMSFDLTSLYPSIIRQVNISPETIAGTFKVAPLHDYINAVAERPSDVYSCSPNGMMYYKDRDGVVPTEITKVFNQRKEHKGYMLAAQRNGEIIKEALHNPNLSVDEPLDVDYRFDFSDEIKEKIKKLSAKSLNEMLFRAQRTEVAGMTAQINRKALINGLAGALGNVWFRYYDLRNATAITTFGQMALQWIERKVNEYLNEVCGTEGEAFVLYGDTDSIYVSADKIIDKVGESKFRDTNHWVDFLDKFARERMEPAIDRGFREMCEYMNNKQHLMFMDREAIAGPPLGSKGIGGFWTGKKRYALNVWDMEGTRYAEPKLKIMGLETQKSSTPKAVQKALKECIRRMLQEGEESLQEYFKEFEKEFRQLNYISIASVSSANNIAKYDVGGFPGPKCPFHIRGILTYNRAIKGNIDAPQVVEGEKVYVLPLREGNPFGDKCIAWPSGTEITDLIKDDVLHWMDYTVLLEKTFIKPLEGFTSAAKLDYEKKASLFDMFDFHHHHHH,soluble
10,MKEHIAAVHKQTIAQAAERLFLERGFDGTSISDICAASGYSRRTVYRYFDTKEEILYYIVANGLEQLRDRLTDIVQAEQPFLAKYEHICKAMRAYYEHCPISARAVHQFQPKALETVTPTMETIFSLGTAINDALARWIEQGIAEGVVRETADVMMTVYVFSAQLHALFDLVETKGAFLLPTLGKTKEQFFAYGQKMIFNSLAKEPLL,soluble
11,MKEKIPFYNEKEFNEMMKKTKKGTFSGWYIINPENNSVEFSGSFNRQFKLNKPIIPVNTEYVTRKEFNEYKDSNDQRLIKIETTLTAQGEQINKLTQTVEKQGEQIRELQVEQKAQGEQIKAQGETLKLILQTLQKMSDRLDKIDPPKLEHHHHHH,not soluble
12,MKEKISEKEYKALIRKTGKEHFDGEKEEYGDGTVGVWTYELRKYKLKPPVKVKYVTQEQFQEYKDSNNQRLIKIENKVDKLVEIVQIHGEQIKAQGETLQLILQTLQKMSDRLDKMEKRIDKLESKLEHHHHHH,not soluble
13,MKEKSIEDIVFEKFQPYINWSIDKLCEHFSINKGEKGLNYRIASAILNLKGKTTKSKPFPEVEEFEKSSIVVKTVHFNKKNVNKESMSFGAFKFEELANEEWEDSEGYPSAQWRNFLLETRFLFFVVKEDEDGVDIFKGIKFFSMPEEDINGPVKRMWDDTVKKLKEGVTLEAVPDKSTKDGWRIKNNFVDKSDDLICHVRPHTNNRDYRGGSNADKLPKKINWINRPDSDDYSDEWMTKQSFWINNDYIKKQVEDLL,soluble
14,MKEKSSVEVRLDKWLWAARFYKTRAMAREMIEGGKVHYNGQRSKPSKIVELNATLTLRQGNDERTVIVKAITEQRRPASEAVALYEETAESVEKREKMAQARKLNALTMPHPDRRPDKKERRDLLRFKHGDSE,not soluble
15,MKEKVFFKTFGCRTNIYDTELLKSYVKDYEIINDENKAQIIVVNSCTVTNGADSGIKSYVNTMQKKGIKVILTGCGAVSKGKELLDKKQVFGVLGASNKDKINEFLGAKTSFYELGNLNFIDKDIVCEYENHTKAFVKIQEGCDFACSYCIIPSVRGKSRSVDEKALLKQVEILGANGYSEIVLTGTNIGSYGLKNGTTLGKLLQKMGQILGIKRIRLGSLEPAQLDESFLEILDEAWLERHLHIALQHTSEKMLRIMRRRSHTDNDLKLFNTIASKGYALGTDFIVAHPGESEELWQEALRNFKEFPLTHIHAFIFSPRNNTHSATMKDVINGTLAKERLNTLKSIVEKNNYEFRKKNQVSLEVLVENQKDGFFEGYDQFFNKIKIKSDKDIAKEWIVISEYEVQEKSNFTNLKGLEHHHHHH,soluble
16,MKELMRNVYLLDDTLVTKSKYGSHYGEKVFDGYREWVPWRSKLAAMILKGHRLKLRGDERVLYLGAASGTTVSHLADIVDEGIIYAVEYSAKPFEKLLELVRERNNIIPLLFDASKPWKYSGIVEKVDLIYQDIAQKNQIEILKANAEFFLKEKGEVVIMVKARSIDSTAEPEEVFKSVLKEMEGDFKIVKHGSLMPYHRDHIFIHAYRF,soluble
17,MKEMTGLHSLVSIENFIKQHKFSFIYISRPGCTVCHAVLPQLRIVLDQFPNIKLGHINADDVAEVAGRFSVFTVPVLLLFIDGTEFLREARFVHFEQLEQKLKRVYRLYEGE,not soluble
18,MKEMVGGCCVCADENGWTDNPLIYCDGENCEVAVHQGCYGIQEVPEGEWFCAKCTKASAMMPGSINEATFCCQLCPFDYGALKKTDRNGWAHVICALYIPEVRFGNVHSMEPVILNDVPTDKFNKLCYICNEERPNDAKKGACMSCNKSTCKRSFHVTCAQRKGLLCEEGAISRNVKYCGYCENHLKKAINDPAIKVIPACPPVQRLSKEQDKKKTVLLTSLPLPPPAPRLHMLADPLPIKSNKVNNVLGLGSAINAVSLEERPASGSTVNSGIFVPPPTAFSPPLTTSSRSSVAQDPSPPLTINKNSLSSSGPLIPSTAHLSATTASATPIMANGSTLPPSSETTVGTHCLQQLQIQSAAAAAITQNQIGPSELNGYPAASQLSSFMHEIPARNTTSVASLLPPGAAEYHLNGSGDEEKTVKAVLTAPLTKAKRIRDSKNDMMDKTHKRPRANARPPAVLGSMSSGSSGGTVGKSPSMQRLQNLVAPIVSETVTDFQRDRVADRTAAERRAAAAQSQPSTSTNGGPNVTIPAVVEVHTNSTNSTNHQNNGLTQNAPASTSMQAGTSSNDGVISQNGTSSTSQSNRLNLPSFMEQLLERQWDQGSSLLMANAHFDVAQLLSCLFQLKSENFRLEENLSGLRKRRDHLFALNSRLAEVNTLDVSKRQRSDGLLLQQQIAHHLDPTSIVPKAEVHKQEPLSAPTSVPLPANHSSSLFEDIKAPKATYSRKTPSNIPLTVPLSTAATALTTTTAASSGAPVNSNIQNHRATPSTAGAPMAATPIMTAVTSANELAALSPERAQALLNMYRMPLDANVAAQLSMITNFPGQVNPSLFSRLLAVNMMNGGLQPNGQPLSALPPPTSATPNGK,soluble
19,MKENFLKQKRMEKNLTLEQVGNFVGVGKSTVRKWETGMIENMGRDKIVALSKILDVSPLEILGIPETEETPFVVPTNIMNIYKQLTTENQEAVFRYAQKKLTEQNYF,not soluble
